# Measured values published in article PMC4150764, “Structural and functional basis of transcriptional regulation by TetR family protein CprB from S. coelicolor A3(2)” (Nucleic Acids Research, 2014).
# Changes are numbered by the printed parent chain.
# T1: CprB (Streptomyces coelicolor A3(2), UniProt Q7AKF2 1-215)
# T1 sequence: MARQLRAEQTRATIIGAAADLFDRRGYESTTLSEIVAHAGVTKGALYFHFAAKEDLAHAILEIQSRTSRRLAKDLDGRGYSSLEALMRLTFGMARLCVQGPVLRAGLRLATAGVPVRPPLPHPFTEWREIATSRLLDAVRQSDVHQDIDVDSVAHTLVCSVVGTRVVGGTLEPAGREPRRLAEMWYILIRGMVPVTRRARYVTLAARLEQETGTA
# T2: CprB S33A (Streptomyces coelicolor A3(2), UniProt Q7AKF2 1-215, S33A)
# T2 sequence: T1 sequence with S33A
# T3: CprB K43A (Streptomyces coelicolor A3(2), UniProt Q7AKF2 1-215, K43A)
# T3 sequence: T1 sequence with K43A
# B1: kasOA (dsDNA)
# DNA 1: ACAAACCGGTGTGCTGGTTTGTAAAGTCGTGG
# DNA 2: CCACGACTTTACAAACCAGCACACCGGTTTGT
# B2: cprA upstream 25-mer (-44 to -20 of cprA-ATG) (dsDNA)
# DNA 1: AACAGGCACACGGTCTGTTGGTTCT
# DNA 2: AGAACCAACAGACCGTGTGCCTGTT
# B3: QacR(OS) 28-mer (dsDNA)
# DNA 1: CTTATAGACCGATCGATCGGTCTATAAG
# DNA 2: CTTATAGACCGATCGATCGGTCTATAAG
# B4: cprB1 59-mer (-58 to 0 of cprB-ATG) (dsDNA)
# DNA 1: GCCGGGGGTAAAGGCAGGCGGCACGGTCTGTTGAGTTCCAGCCCGGGAGAATCCAGCCG
# DNA 2: CGGCTGGATTCTCCCGGGCTGGAACTCAACAGACCGTGCCGCCTGCCTTTACCCCCGGC
# B5: TetR(OS) 15-mer (dsDNA)
# DNA 1: TCTATCATTGATAGG
# DNA 2: CCTATCAATGATAGA
# B6: scbR (dsDNA)
# DNA 1: GGAACCGGCAATGCGGTTTGTTCGATC
# DNA 2: GATCGAACAAACCGCATTGCCGGTTCC
# B7: CS 22-mer (dsDNA)
# DNA 1: ACATACGGGACGCCCCGTTTAT
# DNA 2: ATAAACGGGGCGTCCCGTATGT
# B8: OPB 27-mer (-47 to -21 of cprB-ATG) (dsDNA)
# DNA 1: AGGCAGGCGGCACGGTCTGTTGAGTTC
# DNA 2: GAACTCAACAGACCGTGCCGCCTGCCT
# B9: CprB (coelicolor pigment regulator protein B) from S. coelicolor A3(2) (natural protein, UniProt O66122 1-215, looked up)
# chain: T1 sequence
# modifications: intermonomer disulfide linkage between cysteine residues at position 159
# notes: CprB, TetR family gamma-butyrolactone receptor, Streptomyces coelicolor A3(2); the cprB gene encodes a 215 amino acid protein, expressed from pET26b(+); Crystallised with the 22-mer consensus DNA (CS); two homodimers in each asymmetric unit; No tag is mentioned; purification was by cation exchange; also called native CprB; source: E. coli BL21(DE3)pLysS, purified (SP Sepharose)
# B10: kasOB (dsDNA)
# DNA 1: CAAAACAGACTTGTTAGCTGTTT
# DNA 2: AAACAGCTAACAAGTCTGTTTTG
# Legend:
# CprB [1] = molecular target: T1, CprB; assay: EMSA; range given for scbR, kasOA, kasOB together; EMSA: 10 mM Tris-HCl pH 7.8, 50 mM KCl, 1 mM EDTA, 1 mM DTT, 5% glycerol, hemoglobin, poly(dI-dC), 20 C, ~1 nM DNA; ITC: 50 mM phosphate pH 7, 150 mM NaCl, 25 C; details: protein: recombinant; chain copies: 4; label: 5'-32P; blunt
# CprB [2] = molecular target: T1, CprB; assay: EMSA; similar trend to OPB; EMSA: 10 mM Tris-HCl pH 7.8, 50 mM KCl, 1 mM EDTA, 1 mM DTT, 5% glycerol, hemoglobin, poly(dI-dC), 20 C, ~1 nM DNA; ITC: 50 mM phosphate pH 7, 150 mM NaCl, 25 C; details: protein: recombinant; chain copies: 4; label: 5'-32P; blunt
# CprB [3] = molecular target: T1, CprB; assay: EMSA; about five-fold weaker than own upstream sequence; EMSA: 10 mM Tris-HCl pH 7.8, 50 mM KCl, 1 mM EDTA, 1 mM DTT, 5% glycerol, hemoglobin, poly(dI-dC), 20 C, ~1 nM DNA; ITC: 50 mM phosphate pH 7, 150 mM NaCl, 25 C; details: protein: recombinant; chain copies: 4; label: 5'-32P; blunt, self-complementary
# CprB [4] = molecular target: T1, CprB; assay: EMSA; EMSA: 10 mM Tris-HCl pH 7.8, 50 mM KCl, 1 mM EDTA, 1 mM DTT, 5% glycerol, hemoglobin, poly(dI-dC), 20 C, ~1 nM DNA; ITC: 50 mM phosphate pH 7, 150 mM NaCl, 25 C; details: protein: recombinant, chain copies: 4, blunt
# CprB [5] = molecular target: T1, CprB; assay: ITC; n = 0.52 CS per CprB dimer, 25 C; EMSA: 10 mM Tris-HCl pH 7.8, 50 mM KCl, 1 mM EDTA, 1 mM DTT, 5% glycerol, hemoglobin, poly(dI-dC), 20 C, ~1 nM DNA; ITC: 50 mM phosphate pH 7, 150 mM NaCl, 25 C; details: protein: recombinant; chain copies: 4; label: 5'-32P (EMSA); none (ITC, crystal); blunt
# CprB S33A = molecular target: T2, CprB S33A; assay: EMSA; negligible effect; EMSA: 10 mM Tris-HCl pH 7.8, 50 mM KCl, 1 mM EDTA, 1 mM DTT, 5% glycerol, hemoglobin, poly(dI-dC), 20 C, ~1 nM DNA; ITC: 50 mM phosphate pH 7, 150 mM NaCl, 25 C; details: protein: recombinant; chain copies: 2; label: 5'-32P (EMSA); none (ITC); blunt
# CprB K43A = molecular target: T3, CprB K43A; assay: as above; details: protein: recombinant; chain copies: 2; label: 5'-32P (EMSA); none (ITC); blunt
# CprB [6] = molecular target: T1, CprB; assay: ITC; two-site model, Kd1, n = 0.26, 25 C; EMSA: 10 mM Tris-HCl pH 7.8, 50 mM KCl, 1 mM EDTA, 1 mM DTT, 5% glycerol, hemoglobin, poly(dI-dC), 20 C, ~1 nM DNA; ITC: 50 mM phosphate pH 7, 150 mM NaCl, 25 C; details: protein: recombinant; chain copies: 4; label: 5'-32P (EMSA); none (ITC); blunt
# [7] = molecular target: the molecule itself; assay: crystal structure; CprB (6 mg/ml) co-crystallised with annealed 22-mer CS DNA, 1:1.2 (dimer of CprB:CS), hanging drop, 22°C, 0.2 M KCl, 0.02 M MgCl2, 0.05 M Tris-HCl pH 7.5, 10% PEG 4000; 3.25 Å
binder,measurement,setting,value
B1,Kd,CprB [1],~1060 nM
B2,binding result,CprB [2],binds
B3,Kd,CprB [3],~1500 nM
B4,Kd,CprB [4]; label: 5'-32P,~400 nM
B5,binding result,CprB [4]; label: 5'-32P,no binding
B6,Kd,CprB [1],~1060 nM
B7,Kd,"CprB [4]; label: 5'-32P (EMSA), none (ITC, crystal)",~374 nM
same,Kd,CprB [5],200 nM
B8,Kd,"CprB [4]; label: 5'-32P (EMSA), none (ITC)",~274 nM
same,binding result,CprB S33A,binds
same,binding result,CprB K43A,binds
same,Kd,CprB [6],330 nM
B9,stoichiometry N,[7],2
B10,Kd,CprB [1],~1060 nM
